The values below come from IntAct's records for PubMed 15618422.

To fix the notation:
B1: Cullin-3A (Arabidopsis thaliana (Mouse-ear cress)), Q9ZVH4 (parent)
chain: MSNQKKRNFQIEAFKHRVVVDPKYADKTWQILERAIHQIYNQDASGLSFEELYRNAYNMVLHKFGEKLYTGFIATMTSHLKEKSKLIEAAQGGSFLEELNKKWNEHNKALEMIRDILMYMDRTYIESTKKTHVHPMGLNLWRDNVVHFTKIHTRLLNTLLDLVQKERIGEVIDRGLMRNVIKMFMDLGESVYQEDFEKPFLDASSEFYKVESQEFIESCDCGDYLKKSEKRLTEEIERVAHYLDAKSEEKITSVVEKEMIANHMQRLVHMENSGLVNMLLNDKYEDLGRMYNLFRRVTNGLVTVRDVMTSHLREMGKQLVTDPEKSKDPVEFVQRLLDERDKYDKIINTAFGNDKTFQNALNSSFEYFINLNARSPEFISLFVDDKLRKGLKGITDVDVEVILDKVMMLFRYLQEKDVFEKYYKQHLAKRLLSGKTVSDDAERSLIVKLKTECGYQFTSKLEGMFTDMKTSEDTMRGFYGSHPELSEGPTLIVQVLTTGSWPTQPAVPCNLPAEVSVLCEKFRSYYLGTHTGRRLSWQTNMGTADIKAIFGKGQKHELNVSTFQMCVLMLFNNSDRLSYKEIEQATEIPAADLKRCLQSLACVKGKNVIKKEPMSKDIGEEDLFVVNDKFTSKFYKVKIGTVVAQKETEPEKQETRQRVEEDRKPQIEAAIVRIMKSRKILDHNNIIAEVTKQLQPRFLANPTEIKKRIESLIERDFLERDSTDRKLYRYLA
partner: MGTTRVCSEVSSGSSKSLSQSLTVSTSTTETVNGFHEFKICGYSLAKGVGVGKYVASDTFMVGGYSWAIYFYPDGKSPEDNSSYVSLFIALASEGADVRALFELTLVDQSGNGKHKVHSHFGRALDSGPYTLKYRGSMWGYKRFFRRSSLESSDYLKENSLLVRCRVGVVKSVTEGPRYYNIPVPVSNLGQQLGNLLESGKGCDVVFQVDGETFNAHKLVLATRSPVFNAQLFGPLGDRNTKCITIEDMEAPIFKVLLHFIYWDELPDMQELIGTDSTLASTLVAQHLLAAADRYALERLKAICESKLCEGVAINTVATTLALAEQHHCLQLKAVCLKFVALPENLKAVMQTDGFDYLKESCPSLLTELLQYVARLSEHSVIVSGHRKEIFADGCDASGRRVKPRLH
B2: BTB/POZ and MATH domain-containing protein 1 (Arabidopsis thaliana (Mouse-ear cress)), Q8L765 (parent)
chain: B1 partner
partner: B1 chain

The variants in one test derive from B1. As to conditions: with bpm1_arath BPM1, Q8L765.
Turning to S48A;F49A, the “effect of a mutation on the interaction” value was “decreasing interaction”.

Another test covers variants of B2. As to conditions: with cul3a_arath CUL3A, Q9ZVH4.
Regarding MGTTRVCSEVSSGSSKSLSQSLTVSTSTTETVNGFHEFKICGYSLAKGVGVGKYVASDTFMVGGYSWAIYFYPDGKSPEDNSSYVSLFIALASEGADVRALFELTLVDQSGNGKHKVHSHFGRALDSGPYTLKYRGSMWGYKRFFRRSSLESSDYLKENSLLVRCRVGVVKSVTEGPRYYNIPVPVSNLGQQLGNLLESGKGCDVVFQVDGETFNAHKLVLATRSPVFNAQLFGPLGDRNTKCITIEDMEAPIFKVLLHFIYWDELPDMQELIGTDSTLASTLVAQHLLAAADRAALERLKAICESKLCEGVAINTVATTLALAEQHHCLQLKAVCLKFVALPENLKAVMQTDGFDYLKESCPSLLTELLQYVARLSEHSVIVSGHRKEIFADGCDASGRRVKPRLH [Y295A], the “effect of a mutation on the interaction” value is on record as “decreasing interaction”. Turning to MGTTRVCSEVSSGSSKSLSQSLTVSTSTTETVNGFHEFKICGYSLAKGVGVGKYVASDTFMVGGYSWAIYFYPDGKSPEDNSSYVSLFIALASEGADVRALFELTLVDQSGNGKHKVHSHFGRALDSGPYTLKYRGSMWGYKRFFRRSSLESSDYLKENSLLVRCRVGVVKSVTEGPRYYNIPVPVSNLGQQLGNLLESGKGCAVVFQVDGETFNAHKLVLATRSPVFNAQLFGPLGDRNTKCITIEDMEAPIFKVLLHFIYWDELPDMQELIGTDSTLASTLVAQHLLAAADRYALERLKAICESKLCEGVAINTVATTLALAEQHHCLQLKAVCLKFVALPENLKAVMQTDGFDYLKESCPSLLTELLQYVARLSEHSVIVSGHRKEIFADGCDASGRRVKPRLH [D204A], the “effect of a mutation on the interaction” value is “decreasing interaction”.

For the variant MGTTRVCSEVSSGSSKSLSQSLTVSTSTTETVNGFHEFKICGYSLAKGVGVGKYVASDTFMVGGYSWAIYFYPDGKSPEDNSSYVSLFIALASEGADVRALFELTLVDQSGNGKHKVHSHFGRALDSGPYTLKYRGSMWGYKRFFRRSSLESSDYLKENSLLVRCRVGVVKSVTEGPRYYNIPVPVSNLGQQLGNLLESGKGCDVVFQVDGETFNAHKLVLATRSPVFNAQLFGPLGDRNTKCITIEDMEAPIFKVLLHFIYWDELPDMQELIGTDSTLASTLVAQHLLAAAARYALERLKAICESKLCEGVAINTVATTLALAEQHHCLQLKAVCLKFVALPENLKAVMQTDGFDYLKESCPSLLTELLQYVARLSEHSVIVSGHRKEIFADGCDASGRRVKPRLH [D293A], the “effect of a mutation on the interaction” value is on record as “decreasing interaction”.
